{"source": "patent US20040009486A1", "about": "“Compositions and methods utilizing DNA polymerases” (priority 1999, published 2004)", "key": {"[1]": {"details": "cited from earlier work"}, "[2]": {"details": "Gardner and Jack, 1999; cited from earlier work"}, "[3]": {"system": "primer:template", "assay": "Fidelity screen with rhodamine labeled non-complementary ddNTP", "assay_type": "biochemical", "details": "R110-labeled incorrect ddNTP", "method": "Reactions (10 μl) contained 1 unit of enzyme in 1× reaction buffer, 15 nM primer template, 25 nM of unlabeled complementary ddNTP, and 25, 100, 500, or 1000 nM of rhodamine labeled non-complementary ddNTP in four separate reactions. The reactions were incubated in a Perkin-Elmer 9600 for 25 cycles as follows: 96° C. for 10 s, 50° C. for 5 s, and 60° C. for 30 s. The reactions were then quenched with ice-cold 0.2 M EDTA (final concentration) and the products were purified from unincorporated rhodamine labeled ddNTPs and analyzed as described above.\nFidelity was determined as the tendency of a DNA polymerase to incorporate the correct nucleotide in the presence of increasing amounts of a non-complementary nucleotide. These assays employed constant amounts of primer:template, an unlabeled complementary ddNTP and DNA polymerase, and various concentrations of a rhodamine-labeled non-complementary ddNTP, as described in the Experimental Protocol. The amount of misextended primers is plotted against the ratio of rhodamine-labeled incorrect ddNTP/unlabeled correct ddNTP (FIG. 18 panels A and B). We performed similar assays for all possible mispairs (Table IX).\nTo address these concerns, the insertion fidelity of the JDF-3 P410L/A485T and Taq F667Y mutants was compared. In the first set of fidelity assays, a constant amount of primer:template, an unlabeled complementary ddNTP, and increasing concentrations of R110-labeled non-complementary ddNTP was used (Materials and Methods). […] The amount of misextended primers was determined and plotted against the ratio of R110-labeled incorrect ddNTP/unlabeled correct ddNTP (FIG. 27, panels A and B). Similar assays for all 12 possible mispairs was performed (ddG:dT, ddT:dG, ddT:dC, ddC:dT, ddC:dA, ddA:dC, ddA:dG, ddG:dA, ddT:dT, ddC:dC, ddA:dA, ddG:dG). […] The other mispairs are formed less frequently, and at similar rates for the JDF-3 P410L/A485T and Taq F667Y mutants (data not shown).\nFidelity assays using labeled ddNTPs (10 μl) contained 1 unit DNA polymerase in 1× reaction buffer, 15 nM primer: template, 25 nM of unlabeled complementary ddNTP, and 25, 100, 500, or 1000 nM of rhodamine-labeled non-complementary ddNTP in four separate reactions. The reactions were incubated in a Perkin-Elmer 9600 for 25 cycles as follows: 96° C. for 10 s, 50° C. for 5 s, and 60° C. for 30 s. The reactions were quenched and analyzed as above."}, "[4]": {"details": "Reha-Krantz et al., 1993; cited from earlier work"}, "[5]": {"system": "Primed M13", "assay": "Polymerase specific activity on primed M13 (Table IV)", "assay_type": "biochemical", "excerpt": "(§1) Recombinant JDF-3 DNA polymerase was purified as described below (see “Purification of JDF-3” (method 1)). The biochemical properties of JDF-3 DNA polymerase have been compared to those of other commercially available archaeal DNA polymerases. […] JDF-3 DNA polymerase was therefore chosen for development of a DNA sequencing enzyme."}, "[6]": {"assay": "3′ to 5′ exonuclease activity, Kong et al. method, bacterial lysates", "assay_type": "biochemical", "method": "To analyze JDF-3 mutant proteins, the DNA sequence encoding JDF-3 DNA polymerase was PCR amplified using primers GGGAAACATATGATCCTTGACGTTGATTAC (where NdeI site in bold and start codon underlined) and GGGAAAGGATCCTCACTTCTTCTTCCCCTTC (where BamHI site shown in bold type). The PCR products were digested, purified, and ligated into a high expression level vector using standard methods. Plasmid clones were transformed into BL21(DE3). Recombinant bacterial clones were grown using standard procedures and JDF-3 polymerase mutants were expressed in the absence of induction. The exonuclease and polymerase activities of recombinant clones were assayed using bacterial lysates. Typically, crude extracts were heated at 70° C. for 15-30 minutes and then centrifuged to obtain a cleared lysate.\nThere are several methods of measuring 3′ to 5′ exonuclease activity known in the art, including that of Kong et al. (Kong et al., 1993, J. Biol. Chem. 268: 1965) and that of Southworth et al. (Southworth et al., 1996, Proc. Natl. Acad. Sci. U.S.A. 93: 5281), the full contents of both of which are hereby incorporated by reference. The exonuclease activity of wild type and active mutant polymerases as measured by the Kong et al. method were as follows: […]"}, "[7]": {"system": "Activated DNA", "assay": "Polymerase specific activity on activated DNA (Table IV)", "assay_type": "biochemical", "method": "as §1\nDNA polymerase activity was measured using purified JDF-3 polymerase mutants or heat-treated bacterial extracts prepared from various mutant clones. DNA polymerase activity was measured by monitoring the incorporation of ^3H-TTP into activated calf thymus DNA. A typical DNA polymerase reaction cocktail contained:\nIncorporation was measured by adding 1 μl of polymerase samples to 10 μl aliquots of polymerase cocktail. DNA polymerase samples were diluted in a suitable storage buffer (e.g., 25 mM Tris-HCl (pH 7.5), 100 mM KCl, 0.1 mM EDTA, 1 mM DTT, 0.1% (v/v) Tween 20, 0.1% (v/v) Igepal 630, 10 μg/ml BSA, and 50% (v/v) glycerol). Polymerization reactions were conducted for 30 minutes at 72° C. Extension reactions were quenched on ice, and then 5 μl aliquots were spotted immediately onto DE81 ion-exchange filters (2.3 cm; Whatman #3658323). Unincorporated [^3H]TTP was removed by 6 washes with 2×SCC (0.3M NaCl, 30 mM sodium citrate, pH 7.0), followed by a brief wash with 100% ethanol. Incorporated radioactivity was measured by scintillation counting. […]"}, "[8]": {"assay": "Polymerase constant for dNTP (Table IV)", "assay_type": "biochemical", "details": "head names no parameter", "excerpt": "as §1"}, "[9]": {"system": "DNA", "assay": "Polymerase constant for DNA (Table IV)", "assay_type": "biochemical", "details": "head names no parameter", "excerpt": "as §1"}}}
{"molecule": "Y412F: VENT DNA polymerase site-directed mutant Y412F (Gardner and Jack, 1999)", "values": [{"measurement": "analog incorporation", "setting": "[1]; Gardner and Jack, 1999", "value": "no change in analog incorporation"}]}
{"molecule": "Y412V: VENT DNA polymerase site-directed mutant Y412V (Gardner and Jack, 1999)", "values": [{"measurement": "increase in incorporation of ribonucleotide ATP", "setting": "[2]", "value": 200, "unit": "fold"}, {"measurement": "dideoxynucleotide incorporation relative to unmutated / wild type enzyme", "setting": "[1]; literature values", "value": 2, "unit": "fold"}]}
{"molecule": "AmpliTaq FS: Taq F667Y mutant DNA polymerase (ABI / Perkin Elmer)", "values": [{"measurement": "ddG:dT mispair formation frequency, higher than JDF-3 P410L/A485T", "setting": "[3]", "value": 20, "unit": "fold"}, {"measurement": "ddT:dC mispair formation frequency, higher than JDF-3 P410L/A485T", "setting": "[3]", "value": 3, "unit": "fold"}]}
{"molecule": "L412M: L412M bacteriophage T4 DNA polymerase mutant (Reha-Krantz et al., 1993) (protein, UniProt P04415 1-898, looked up, variant L412M) DNA-directed DNA polymerase: MKEFYISIETVGNNIVERYIDENGKERTREVEYLPTMFRHCKEESKYKDIYGKNCAPQKFPSMKDARDWMKRMEDIGLEALGMNDFKLAYISDTYGSEIVYDRKFVRVANCDIEVTGDKFPDPMKAEYEIDAITHYDSIDDRFYVFDLLNSMYGSVSKWDAKLAAKLDCEGGDEVPQEILDRVIYMPFDNERDMLMEYINLWEQKRPAIFTGWNIEGFDVPYIMNRVKMILGERSMKRFSPIGRVKSKLIQNMYGSKEIYSIDGVSILDYLDLYKKFAFTNLPSFSLESVAQHETKKGKLPYDGPINKLRETNHQRYISYNIIDVESVQAIDKIRGFIDLVLSMSYYAKMPFSGVMSPIKTWDAIIFNSLKGEHKVIPQQGSHVKQSFPGAFVFEPKPIARRYIMSFDLTSMYPSIIRQVNISPETIRGQFKVHPIHEYIAGTAPKPSDEYSCSPNGWMYDKHQEGIIPKEIAKVFFQRKDWKKKMFAEEMNAEAIKKIIMKGAGSCSTKPEVERYVKFSDDFLNELSNYTESVLNSLIEECEKAATLANTNQLNRKILINSLYGALGNIHFRYYDLRNATAITIFGQVGIQWIARKINEYLNKVCGTNDEDFIAAGDTDSVYVCVDKVIEKVGLDRFKEQNDLVEFMNQFGKKKMEPMIDVAYRELCDYMNNREHLMHMDREAISCPPLGSKGVGGFWKAKKRYALNVYDMEDKRFAEPHLKIMGMETQQSSTPKAVQEALEESIRRILQEGEESVQEYYKNFEKEYRQLDYKVIAEVKTANDIAKYDDKGWPGFKCPFHIRGVLTYRRAVSGLGVAPILDGNKVMVLPLREGNPFGDKCIAWPSGTELPKEIRSDVLSWIDHSTLFQKSFVKPLAGMCESAGMDYEEKASLDFLFG", "values": [{"measurement": "ddGTP needed for inhibition, less than wild-type polymerase", "setting": "[4]", "value": 50, "unit": "fold"}]}
{"molecule": "JDF-3: Recombinant wild-type Thermococcus species JDF-3 Family B DNA polymerase (SEQ ID NO: 2) (protein, Thermococcus sp. JDF-3) MILDVDYITENGKPVIRVFKKENGEFRIEYDREFEPYFYALLRDDSAIEEIKKITAERHGRVVKVKRAEKVKKKFLGRSVEVWVLYFTHPQDVPAIRDKIRKHPAVIDIYEYDIPFAKRYLIDKGLIPMEGEEELKLMSFDIETLYHEGEEFGTGPILMISYADESEARVITWKKIDLPYVEVVSTEKEMIKRFLRVVKEKDPDVLITYNGDNFDFAYLKKRCEKLGVSFTLGRDGSEPKIQRMGDRFAVEVKGRVHFDLYPVIRRTINLPTYTLEAVYEAVFGKPKEKVYAEEIATAWETGEGLERVARYSMEDARVTYELGREFFPMEAQLSRLIGQGLWDVSRSSTGNLVEWFLLRKAYERNELAPNKPDERELARRRGGYAGGYVKEPERGLWDNIVYLDFRSLYPSIIITHNVSPDTLNREGCRSYDVAPEVGHKFCKDFPGFIPSLLGNLLEERQKIKRKMKATLDPLEKNLLDYRQRAIKILANSYYGYYGYARARWYCRECAESVTAWGREYIEMVIRELEEKFGFKVLYADTDGLHATIPGADAETVKKKAMEFLNYINPKLPGLLELEYEGFYVRGFFVTKKKYAVIDEEGKITTRGLEIVRRDWSEIAKETQARVLEAILRHGDVEEAVRIVREVTEKLSKYEVPPEKLVIHEQITRELKDYKATGPHVAIAKRLAARGVKIRPGTVISYIVLKGSGRIGDRAIPFDEFDPTKHKYDADYYIENQVLPAVERILRAFGYRKEDLRYQKTRQVGLGAWLKPKGKKK", "values": [{"measurement": "Specific Activity (U/mg) × 10^4 Primed M13", "setting": "[5]", "value": "5.2 (U/mg) × 10^4"}, {"measurement": "Exo activity (U/mg)", "setting": "[6]", "value": 915, "unit": "U/mg"}, {"measurement": "Specific Activity (U/mg) × 10^4 Activated DNA", "setting": "[7]", "value": "1.2 ± .07 (U/mg) × 10^4"}, {"measurement": "dNTP (μM each)", "setting": "[8]", "value": "16 ± 2", "unit": "μM each"}, {"measurement": "DNA", "setting": "[9]", "value": 2.0, "unit": "nM"}]}
{"molecule": "Pfu: Family B DNA polymerase from Pyrococcus furiosus (protein, UniProt P61875 1-775, looked up) DNA polymerase: MILDVDYITEEGKPVIRLFKKENGKFKIEHDRTFRPYIYALLRDDSKIEEVKKITGERHGKIVRIVDVEKVEKKFLGKPITVWKLYLEHPQDVPTIREKVREHPAVVDIFEYDIPFAKRYLIDKGLIPMEGEEELKILAFDIETLYHEGEEFGKGPIIMISYADENEAKVITWKNIDLPYVEVVSSEREMIKRFLRIIREKDPDIIVTYNGDSFDFPYLAKRAEKLGIKLTIGRDGSEPKMQRIGDMTAVEVKGRIHFDLYHVITRTINLPTYTLEAVYEAIFGKPKEKVYADEIAKAWESGENLERVAKYSMEDAKATYELGKEFLPMEIQLSRLVGQPLWDVSRSSTGNLVEWFLLRKAYERNEVAPNKPSEEEYQRRLRESYTGGFVKEPEKGLWENIVYLDFRALYPSIIITHNVSPDTLNLEGCKNYDIAPQVGHKFCKDIPGFIPSLLGHLLEERQKIKTKMKETQDPIEKILLDYRQKAIKLLANSFYGYYGYAKARWYCKECAESVTAWGRKYIELVWKELEEKFGFKVLYIDTDGLYATIPGGESEEIKKKALEFVKYINSKLPGLLELEYEGFYKRGFFVTKKRYAVIDEEGKVITRGLEIVRRDWSEIAKETQARVLETILKHGDVEEAVRIVKEVIQKLANYEIPPEKLAIYEQITRPLHEYKAIGPHVAVAKKLAAKGVKIKPGMVIGYIVLRGDGPISNRAILAEEYDPKKHKYDAEYYIENQVLPAVLRILEGFGYRKEDLRYQKTRQVGLTSWLNIKKS", "values": [{"measurement": "Specific Activity (U/mg) × 10^4 Primed M13", "setting": "[5]", "value": "2.0 ± .02 (U/mg) × 10^4"}, {"measurement": "dNTP (μM each)", "setting": "[8]", "value": "16 ± 2", "unit": "μM each"}, {"measurement": "DNA", "setting": "[9]", "value": 0.7, "unit": "nM"}]}
